Experimental data published in the Immune Epitope Database (IEDB).

How the values were obtained:
[1] = molecular target: HLA-B*15:17; assay: IEDB peptide-MHC binding, purified MHC/competitive/fluorescence; filed as Kd, often an IC50 or EC50 that approximates it; ≥ and ≤ were set here for values at or beyond the usual limits of such assays
[2] = molecular target: HLA-A*26:02; assay: as above; conditions: source organism: Influenza A virus (A/duck/Hong Kong/3096/99(H6N2))
[3] = molecular target: HLA-B*08:01; assay: as above; conditions: source organism: Influenza A virus (A/duck/Hong Kong/3096/99(H6N2))
[4] = molecular target: HLA-B*57:01; assay: as above
[5] = molecular target: HLA-B*46:01; assay: as above
[6] = molecular target: HLA-A*68:02; assay: as above; conditions: source organism: Influenza A virus (A/duck/Hong Kong/3096/99(H6N2))
[7] = molecular target: HLA-B*39:01; assay: as above
[8] = molecular target: HLA-B*35:01; assay: as above; conditions: source organism: Influenza A virus (A/duck/Hong Kong/3096/99(H6N2))
[9] = molecular target: HLA-A*02:06; assay: as above; conditions: source organism: Influenza A virus (A/duck/Hong Kong/3096/99(H6N2))
[10] = molecular target: HLA-A*02:01; assay: IEDB peptide-MHC binding, purified MHC/direct/fluorescence; filed as Kd, often an IC50 or EC50 that approximates it; ≥ and ≤ were set here for values at or beyond the usual limits of such assays
[11] = molecular target: HLA-A*01:01; assay: as above
[12] = molecular target: HLA-B*15:01; assay: as above
[13] = molecular target: HLA-B*27:05; assay: as above
[14] = molecular target: HLA-A*02:19; assay: as above
[15] = molecular target: HLA-A*02:12; assay: as above
[16] = molecular target: HLA-A*23:01; assay: as above
[17] = molecular target: HLA-A*02:11; assay: as above
[18] = molecular target: HLA-A*24:03; assay: as above
[19] = molecular target: HLA-A*11:01; assay: as above
[20] = molecular target: HLA-B*58:01; assay: as above
[21] = molecular target: HLA-A*02:03; assay: as above
[22] = molecular target: HLA-B*07:02; assay: as above
[23] = molecular target: HLA-A*26:01; assay: as above
[24] = molecular target: HLA-A*31:01; assay: as above
[25] = molecular target: HLA-A*03:01; assay: as above
[26] = molecular target: HLA-B*44:02; assay: as above
[27] = molecular target: HLA-B*08:01; assay: as above
[28] = molecular target: HLA-A*69:01; assay: as above
[29] = molecular target: HLA-B*35:01; assay: as above
[30] = molecular target: HLA-B*40:01; assay: as above
[31] = molecular target: HLA-A*02:01; assay: IEDB peptide-MHC binding, purified MHC/competitive/fluorescence; filed as Kd, often an IC50 or EC50 that approximates it; ≥ and ≤ were set here for values at or beyond the usual limits of such assays
[32] = molecular target: HLA-B*27:03; assay: as above; conditions: source organism: Zaire ebolavirus
[33] = molecular target: HLA-B*18:01; assay: as above
[34] = molecular target: HLA-B*15:01; assay: as above
[35] = molecular target: HLA-B*51:01; assay: as above
[36] = molecular target: HLA-A*69:01; assay: as above
[37] = molecular target: HLA-A*26:01; assay: as above
[38] = molecular target: HLA-A*02:01; assay: IEDB peptide-MHC binding, purified MHC/competitive/fluorescence; ≥ and ≤ were set here for values at or beyond the usual limits of such assays; conditions: source organism: Zaire ebolavirus
[39] = molecular target: HLA-A*11:01; assay: as above; conditions: source organism: Zaire ebolavirus
[40] = molecular target: HLA-A*03:01; assay: as above; conditions: source organism: Zaire ebolavirus
[41] = molecular target: HLA-A*02:16; assay: IEDB peptide-MHC binding, purified MHC/direct/fluorescence; filed as Kd, often an IC50 or EC50 that approximates it; ≥ and ≤ were set here for values at or beyond the usual limits of such assays
[42] = molecular target: HLA-A*68:02; assay: as above
[43] = molecular target: HLA-A*29:02; assay: as above
[44] = source organism: Influenza A virus (A/duck/Hong Kong/3096/99(H6N2))
[45] = source organism: Influenza A virus (A/tiger/Thailand/CU-T4/04(H5N1))
[46] = source organism: Influenza A virus(A/swine/Shandong/fZC/2003(H9N2))
[47] = source organism: Coxiella burnetii
[48] = source organism: Escherichia coli O157:H7
[49] = source organism: Zaire ebolavirus

## TMLYNKMEF
[1]; [44]
  Kd: 0.311 µM
[2]
  Kd: ≥ 20 µM
[3]
  Kd: 3 µM
[4]; [44]
  Kd: ≥ 20 µM
[5]; [44]
  Kd: ≥ 20 µM
[6]
  Kd: 4.44 µM
[7]; [44]
  Kd: ≥ 20 µM
[8]
  Kd: 1.26 µM
[9]
  Kd: 0.312 µM
[10]; [45]
  Kd: 0.604 µM
[11]; [45]
  Kd: ≥ 20 µM
[12]; source organism: Influenza A virus (A/Puerto Rico/8/34/Mount Sinai(H1N1))
  Kd: 0.118 µM
[13]; [45]
  Kd: ≥ 20 µM
[14]; [46]
  Kd: ≥ 5 µM
[15]; [46]
  Kd: 3.47 µM
[16]; [45]
  Kd: 0.047 µM
[17]; [46]
  Kd: 0.157 µM
[18]; [45]
  Kd: 0.0114 µM
[19]; [45]
  Kd: ≥ 20 µM
[20]; [45]
  Kd: ≥ 20 µM
[21]; [46]
  Kd: ≥ 20 µM
[22]; [45]
  Kd: ≥ 20 µM
[23]; [46]
  Kd: ≥ 20 µM
[24]; [45]
  Kd: ≥ 20 µM
[25]; [45]
  Kd: ≥ 20 µM

## WAPEGDIRL
[10]; [47]
  Kd: 0.33 µM
[11]; [47]
  Kd: ≥ 20 µM
[26]; [47]
  Kd: ≥ 20 µM
[12]; [47]
  Kd: ≥ 20 µM
[13]; [47]
  Kd: ≥ 20 µM
[27]; [47]
  Kd: ≥ 20 µM
[28]; [47]
  Kd: ≥ 20 µM
[18]; [47]
  Kd: ≥ 20 µM
[19]; [47]
  Kd: ≥ 20 µM
[20]; [47]
  Kd: ≥ 20 µM
[29]; [47]
  Kd: 0.899 µM
[22]; [47]
  Kd: 4.29 µM
[23]; [47]
  Kd: ≥ 20 µM
[24]; [47]
  Kd: ≥ 20 µM
[25]; [47]
  Kd: ≥ 20 µM
[30]; [47]
  Kd: ≥ 20 µM

## IRNPPMVVF
[10]; [48]
  Kd: ≥ 20 µM
[11]; [48]
  Kd: ≥ 20 µM
[26]; [48]
  Kd: ≥ 20 µM
[12]; [48]
  Kd: ≥ 20 µM
[13]; [48]
  Kd: 3.25 µM
[27]; [48]
  Kd: ≥ 20 µM
[28]; [48]
  Kd: ≥ 20 µM
[19]; [48]
  Kd: ≥ 20 µM
[20]; [48]
  Kd: ≥ 20 µM
[29]; [48]
  Kd: ≥ 10 µM
[23]; [48]
  Kd: ≥ 20 µM
[24]; [48]
  Kd: ≥ 20 µM
[25]; [48]
  Kd: ≥ 20 µM
[30]; [48]
  Kd: ≥ 20 µM

## FLILPQAKK
[31]; [49]
  Kd: ≥ 20 µM
[32]
  Kd: ≥ 20 µM
[33]; [49]
  Kd: ≥ 20 µM
[1]; [49]
  Kd: ≥ 20 µM
[34]; [49]
  Kd: ≥ 20 µM
[35]; [49]
  Kd: ≥ 20 µM
[4]; [49]
  Kd: ≥ 20 µM
[5]; [49]
  Kd: ≥ 20 µM
[36]; [49]
  Kd: ≥ 20 µM
[7]; [49]
  Kd: ≥ 20 µM
[37]; [49]
  Kd: ≥ 20 µM
[38]
  IC50: 64.7 µM
[39]
  IC50: 1.67 µM
[40]
  IC50: 4.4 µM
[41]; [49]
  Kd: ≥ 20 µM
[14]; [49]
  Kd: ≥ 20 µM
[15]; [49]
  Kd: ≥ 20 µM
[16]; [49]
  Kd: ≥ 20 µM
[42]; [49]
  Kd: ≥ 20 µM
[17]; [49]
  Kd: ≥ 20 µM
[43]; [49]
  Kd: ≥ 20 µM
[18]; [49]
  Kd: ≥ 20 µM
[21]; [49]
  Kd: ≥ 20 µM
[25]; [49]
  Kd: ≥ 20 µM

## GRFQEALKK
[31]; source organism: Choclo virus
  Kd: ≥ 20 µM
[33]; source organism: Choclo virus
  Kd: ≥ 20 µM
[1]; source organism: Choclo virus
  Kd: ≥ 20 µM
[34]; source organism: Choclo virus
  Kd: ≥ 20 µM
[35]; source organism: Choclo virus
  Kd: ≥ 20 µM
[4]; source organism: Choclo virus
  Kd: ≥ 20 µM
[5]; source organism: Choclo virus
  Kd: ≥ 20 µM
[36]; source organism: Choclo virus
  Kd: ≥ 20 µM
[7]; source organism: Choclo virus
  Kd: ≥ 20 µM
[37]; source organism: Choclo virus
  Kd: ≥ 20 µM
[41]; source organism: Choclo virus
  Kd: ≥ 20 µM
[13]; source organism: Orthohantavirus andesense
  Kd: 0.0717 µM
[14]; source organism: Choclo virus
  Kd: ≥ 20 µM
[15]; source organism: Choclo virus
  Kd: ≥ 20 µM
[16]; source organism: Choclo virus
  Kd: ≥ 20 µM
[42]; source organism: Choclo virus
  Kd: ≥ 20 µM
[17]; source organism: Choclo virus
  Kd: ≥ 20 µM
[43]; source organism: Choclo virus
  Kd: ≥ 20 µM
[18]; source organism: Choclo virus
  Kd: ≥ 20 µM
[21]; source organism: Choclo virus
  Kd: ≥ 20 µM
[25]; source organism: Choclo virus
  Kd: ≥ 20 µM

## FAAWIQQTY
[5]; source organism: Vibrio parahaemolyticus AN-5034
  Kd: 0.125 µM
[29]; source organism: Vibrio parahaemolyticus RIMD 2210633
  Kd: 0.01 µM
